Test results published in patent US11505811B2, “Method for the preparation of 2,4-dihydroxybutyrate” (ADISSEO FRANCE S.A.S., priority 2012, dated 2022).

B1: Ll-Ldh: (L)-lactate dehydrogenase of Lactococcus lactis, SEQ ID NO: 6 (protein, listed as Lactococcus lactis)
chain: MADKQRKKVILVGDGAVGSSYAFALVNQGIAQELGIVDLFKEKTQGDAEDLSHALAFTSPKKIYSADYSDASDADLVVLTSGAPQKPGETRLDLVEKNLRITKDVVTKIVASGFKGIFLVAANPVDILTYATWKFSGFPKNRVVGSGTSLDTARFRQALAEKVDVDARSIHAYIMGEHGDSEFAVWSHANVAGVKLEQWFQENDYLNEAEIVELFESVRDAAYSIIAKKGATFYGVAVALARITKAILDDEHAVLPVSVFQDGQYGVSDCYLGQPAVVGAEGVVNPIHIPLNDAEMQKMEASGAQLKAIIDEAFAKEEFASAVKN
B2: R81A: E. coli malate dehydrogenase mutant R81A, SEQ ID No. 102 (protein, listed as Escherichia coli)
chain: MDHRAMKVAVLGAAGGIGQALALLLKTQLPSGSELSLYDIAPVTPGVAVDLSHIPTAVKIKGFSGEDATPALEGADVVLISAGVAAKPGMDRSDLFNVNAGIVKNLVQQVAKTCPKACIGIITNPVNTTVAIAAEVLKKAGVYDKNKLFGVTTLDIIRSNTFVAELKGKQPGEVEVPVIGGHSGVTILPLLSQVPGVSFTEQEVADLTKRIQNAGTEVVEAKAGGGSATLSMGQAAARFGLSLVRALQGEQGVVECAYVEGDGQYARFFSQPLLLGKNGVEERKSIGTLSAFEQNALEGMLDTLKKDIALGEEFVNK
B3: Ec-Mdh: (L)-malate dehydrogenase from Escherichia coli, SEQ ID NO: 2 (protein, listed as Escherichia coli)
chain: MKVAVLGAAGGIGQALALLLKTQLPSGSELSLYDIAPVTPGVAVDLSHIPTAVKIKGFSGEDATPALEGADVVLISAGVARKPGMDRSDLFNVNAGIVKNLVQQVAKTCPKACIGIITNPVNTTVAIAAEVLKKAGVYDKNKLFGVTTLDIIRSNTFVAELKGKQPGEVEVPVIGGHSGVTILPLLSQVPGVSFTEQEVADLTKRIQNAGTEVVEAKAGGGSATLSMGQAAARFGLSLVRALQGEQGVVECAYVEGDGQYARFFSQPLLLGKNGVEERKSIGTLSAFEQNALEGMLDTLKKDIALGEEFVNK
B4: R81A G179D D86S: E. coli malate dehydrogenase mutant, SEQ ID No. 118 (protein, listed as Escherichia coli)
chain: MKVAVLGAAGGIGQALALLLKTQLPSGSELSLYDIAPVTPGVAVDLSHIPTAVKIKGFSGEDATPALEGADVVLISAGVAAKPGMSRSDLFNVNAGIVKNLVQQVAKTCPKACIGIITNPVNTTVAIAAEVLKKAGVYDKNKLFGVTTLDIIRSNTFVAELKGKQPGEVEVPVIGGHSDVTILPLLSQVPGVSFTEQEVADLTKRIQNAGTEVVEAKAGGGSATLSMGQAAARFGLSLVRALQGEQGVVECAYVEGDGQYARFFSQPLLLGKNGVEERKSIGTLSAFEQNALEGMLDTLKKDIALGEEFVNK
B5: R81A D86S: E. coli malate dehydrogenase mutant, SEQ ID No. 1114 as printed (protein, UniProt P61889 1-312, looked up, variant R81A D86S)
Malate dehydrogenase: MKVAVLGAAGGIGQALALLLKTQLPSGSELSLYDIAPVTPGVAVDLSHIPTAVKIKGFSGEDATPALEGADVVLISAGVAAKPGMSRSDLFNVNAGIVKNLVQQVAKTCPKACIGIITNPVNTTVAIAAEVLKKAGVYDKNKLFGVTTLDIIRSNTFVAELKGKQPGEVEVPVIGGHSGVTILPLLSQVPGVSFTEQEVADLTKRIQNAGTEVVEAKAGGGSATLSMGQAAARFGLSLVRALQGEQGVVECAYVEGDGQYARFFSQPLLLGKNGVEERKSIGTLSAFEQNALEGMLDTLKKDIALGEEFVNK
B6: R81A 112V: E. coli malate dehydrogenase mutant, SEQ ID No. 115 as printed (protein, listed as Escherichia coli)
chain: MKVAVLGAAGGVGQALALLLKTQLPSGSELSLYDIAPVTPGVAVDLSHIPTAVKIKGFSGEDATPALEGADVVLISAGVAAKPGMDRSDLFNVNAGIVKNLVQQVAKTCPKACIGIITNPVNTTVAIAAEVLKKAGVYDKNKLFGVTTLDIIRSNTFVAELKGKQPGEVEVPVIGGHSGVTILPLLSQVPGVSFTEQEVADLTKRIQNAGTEVVEAKAGGGSATLSMGQAAARFGLSLVRALQGEQGVVECAYVEGDGQYARFFSQPLLLGKNGVEERKSIGTLSAFEQNALEGMLDTLKKDIALGEEFVNK
B7: R81A M85Q: E. coli malate dehydrogenase mutant, SEQ ID No. 104 (protein, listed as Escherichia coli)
chain: MKVAVLGAAGGIGQALALLLKTQLPSGSELSLYDIAPVTPGVAVDLSHIPTAVKIKGFSGEDATPALEGADVVLISAGVAAKPGQDRSDLFNVNAGIVKNLVQQVAKTCPKACIGIITNPVNTTVAIAAEVLKKAGVYDKNKLFGVTTLDIIRSNTFVAELKGKQPGEVEVPVIGGHSGVTILPLLSQVPGVSFTEQEVADLTKRIQNAGTEVVEAKAGGGSATLSMGQAAARFGLSLVRALQGEQGVVECAYVEGDGQYARFFSQPLLLGKNGVEERKSIGTLSAFEQNALEGMLDTLKKDIALGEEFVNK
B8: R81A M85E: E. coli malate dehydrogenase mutant, SEQ ID No. 106 (protein, listed as Escherichia coli)
chain: MKVAVLGAAGGIGQALALLLKTQLPSGSELSLYDIAPVTPGVAVDLSHIPTAVKIKGFSGEDATPALEGADVVLISAGVAAKPGEDRSDLFNVNAGIVKNLVQQVAKTCPKACIGIITNPVNTTVAIAAEVLKKAGVYDKNKLFGVTTLDIIRSNTFVAELKGKQPGEVEVPVIGGHSGVTILPLLSQVPGVSFTEQEVADLTKRIQNAGTEVVEAKAGGGSATLSMGQAAARFGLSLVRALQGEQGVVECAYVEGDGQYARFFSQPLLLGKNGVEERKSIGTLSAFEQNALEGMLDTLKKDIALGEEFVNK
B9: R81A G179D: E. coli malate dehydrogenase mutant, SEQ ID No. 112 (protein, listed as Escherichia coli)
chain: MKVAVLGAAGGIGQALALLLKTQLPSGSELSLYDIAPVTPGVAVDLSHIPTAVKIKGFSGEDATPALEGADVVLISAGVAAKPGMDRSDLFNVNAGIVKNLVQQVAKTCPKACIGIITNPVNTTVAIAAEVLKKAGVYDKNKLFGVTTLDIIRSNTFVAELKGKQPGEVEVPVIGGHSDVTILPLLSQVPGVSFTEQEVADLTKRIQNAGTEVVEAKAGGGSATLSMGQAAARFGLSLVRALQGEQGVVECAYVEGDGQYARFFSQPLLLGKNGVEERKSIGTLSAFEQNALEGMLDTLKKDIALGEEFVNK
B10: R81A M85Q I12V: E. coli malate dehydrogenase mutant, SEQ ID No. 108 (protein, listed as Escherichia coli)
chain: MKVAVLGAAGGVGQALALLLKTQLPSGSELSLYDIAPVTPGVAVDLSHIPTAVKIKGFSGEDATPALEGADVVLISAGVAAKPGQDRSDLFNVNAGIVKNLVQQVAKTCPKACIGIITNPVNTTVAIAAEVLKKAGVYDKNKLFGVTTLDIIRSNTFVAELKGKQPGEVEVPVIGGHSGVTILPLLSQVPGVSFTEQEVADLTKRIQNAGTEVVEAKAGGGSATLSMGQAAARFGLSLVRALQGEQGVVECAYVEGDGQYARFFSQPLLLGKNGVEERKSIGTLSAFEQNALEGMLDTLKKDIALGEEFVNK
B11: R81A M85E I12V: E. coli malate dehydrogenase mutant, SEQ ID No. 110 (protein, listed as Escherichia coli)
chain: MKVAVLGAAGGVGQALALLLKTQLPSGSELSLYDIAPVTPGVAVDLSHIPTAVKIKGFSGEDATPALEGADVVLISAGVAAKPGEDRSDLFNVNAGIVKNLVQQVAKTCPKACIGIITNPVNTTVAIAAEVLKKAGVYDKNKLFGVTTLDIIRSNTFVAELKGKQPGEVEVPVIGGHSGVTILPLLSQVPGVSFTEQEVADLTKRIQNAGTEVVEAKAGGGSATLSMGQAAARFGLSLVRALQGEQGVVECAYVEGDGQYARFFSQPLLLGKNGVEERKSIGTLSAFEQNALEGMLDTLKKDIALGEEFVNK

Columns and labels:
Format in all cases: biochemical
[1] = pyruvate reductase activity, NADH absorption at 340 nm; conditions: natural substrate of Ldh: pyruvate; purified enzyme, 37° C., pH 7
Description: (§1) Enzymatic assays: The reaction mixture contained 60 mM Hepes (pH 7), 50 mM potassium chloride, 5 mM MgCl2, 0.25 mM NADH, (optionally 5 mM fructose-1,6-bisphosphate) (all products from Sigma), and appropriate amounts of purified malate or lactate dehydrogenase or cell extract. Reactions were started by adding appropriate amounts of 2-oxo-4-hydroxybutyrate (OHB), pyruvate, or oxaloacetate (OAA). Enzymatic assays were carried out at 37° C. in 96-well flat bottomed microtiter plates in a final volume of 250 μL. The reactions were followed by the characteristic absorption of NADH at 340 nm (εNADH=6.22 mM^−1 cm^−1) in a microplate reader (BioRad 680XR).

[2] = OHB reductase activity, NADH absorption at 340 nm
Description: as §1
OHB was synthesized by incubating 125 mM homoserine with snake venom (L)-amino acid oxidase (1.25 U/mL, Sigma) and catalase (4400 U/mL, Sigma) in 100 mM Tris buffer at pH 7.8 for 90 min at 37° C. Subsequently, the reaction mixture was purified on an Amicon™ Ultra centrifugal filter with a cut-off of 10 kDa to eliminate the enzymes (method adapted from Wellner & Lichtenberg, 1971).
OHB was quantified by mixing 100 μL of the tested solution with 1 mL of a solution containing 1 M sodium arsenate and 1 M boric acid at pH 6.5. The mixture was incubated at room temperature for 30 min and the absorbance at 325 nm was used to quantify OHB. The relation between absorbance and concentration of the ketone was calibrated using pyruvate solutions of known concentrations (method adapted from (Wellner & Lichtenberg, 1971)). The typical OHB yield of the method was 90%.

[3] = oxaloacetate reductase activity, NADH absorption at 340 nm; conditions: for Max. specific activity, OAA: measured at 0.5 mM oxaloacetate
Description: as §1

[4] = when not saturated, activity estimated at 20 mM substrate
[5] = E. coli Mdh mutants, measured at 20 mM OHB

Molecule | Max. specific activity, OAA ([3]; E. coli Mdh mutants) [µmol/mg/min] | Max. specific activity, OHB [2, 5] [µmol/mg/min] | further results
B1 |  |  | Max. specific activity, natural substrate [1]: 184 µmol/mg/min; Max. specific activity, OHB [2, 4]: 18 µmol/mg/min
B2 | 1.16 | 1.8 | 
B3 | 95 | 0.01 | Max. specific activity, natural substrate ([3]; natural substrate of Mdh: oxaloacetate, purified enzyme, 37° C., pH 7): 95.6 µmol/mg/min; OHB reductase activity, in words [2]: very minor activity; Max. specific activity, OHB [2, 4]: 0.01 µmol/mg/min
B4 | 0.54 | 19 | Km, OAA ([3]; E. coli Mdh mutants, ns = not saturated up to 0.5 mM oxaloacetate): ns; Km, OHB ([2]; E. coli Mdh mutants, ns = not saturated up to 50 mM OHB): ns
B5 | 0.67 | 14.6 | 
B6 | 0.5 | 4.9 | 
B7 | 0.5 | 4.99 | 
B8 | 1 | 3 | 
B9 | 0.37 | 4.16 | 
B10 | 1.84 | 18.9 | 
B11 | 2.2 | 12.54 | 
